What was measured:
[1] = target: ID2, stabilized inner domain of HIV-1 gp120 of clade A/E isolate 93TH057 (HIV-1 clade A/E isolate 93TH057); assay: SPR; antibody immobilised, ID2 passed over at 0-200 nM; Biacore T-100, 25°C; 1:1 Langmuir model, BIAevaluation software; two experiments
[2] = target: ID1 (independent inner domain of gp120, first design, isolate 93TH057) (HIV-1 clade A/E isolate 93TH057); assay: SPR; Biacore T-100, 25°C, 1:1 Langmuir model
[3] = target: single-chain gp120BaL-sCD4 complex (full-length single-chain) (HIV-1 isolate BaL | not stated); assay: SPR; Biacore T-100, 25°C, 1:1 Langmuir model
[4] = target: monomeric full-length BaL gp120 (HIV-1 isolate BaL); assay: SPR; Biacore T-100, 25°C, 1:1 Langmuir model
[5] = target: ID2 (inner domain of gp120 stabilized by the C65-C115 disulfide, isolate 93TH057), from 293 cells (HIV-1 clade A/E isolate 93TH057); assay: ITC; iTC200, 25°C, A32 IgG with FLSC or ID2; heats of dilution subtracted
[6] = target: single-chain gp120BaL-sCD4 complex (full-length single-chain) (HIV-1 isolate BaL | not stated); assay: as above

In the case of mAb A32 (antibody), the Kd [1] is reported as 0.17 nM, the koff [1] is reported as 0.000275 s⁻¹ and the kon [1] is reported as 1.65e+06 M⁻¹ s⁻¹. It also gave a Kd [2] of 9.3 nM, a koff [2] of 0.000785 s⁻¹ and a kon [2] of 85000 M⁻¹ s⁻¹. It also gave a Kd [3] of 0.23 nM, a koff [3] of 0.000102 s⁻¹ and a kon [3] of 443000 M⁻¹ s⁻¹. It also gave a Kd [4] of 3.2 nM, a koff [4] of 0.000437 s⁻¹ and a kon [4] of 139000 M⁻¹ s⁻¹. The Kd [5] was 9 nM, the dH [5] was -2.55 kcal/mol and the Kd [6] was 11.5 nM. It also gave a dH [6] of -3.15 kcal/mol.

Reference: publication PMC4856543
